Assay results from the supplement of paper PMC9112550, “Optimization of the antimicrobial peptide Bac7 by deep mutational scanning” (BMC Biology, 2022).

System: Escherichia coli TOP10
Assay: shrunken log2 fold change of peptide-encoding DNA abundance (4.5 h post-induction vs induction); higher = less antimicrobial activity (less host growth inhibition)
Conditions: time post-induction: 4.5 h; library: site-saturation at positions 5, 18, 19, 20
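Further: peptides expressed intracellularly from a pBAD plasmid library in pooled LB shake-flask culture, induced with 0.3% L-arabinose, DNA abundance read by NGS, three biological replicates, DESeq2 with apeglm shrinkage.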

Sequence | shrunken log2 fold change
RRIRHRPPRLPRPRPRPVFEPRP | -0.153
RRIRLRPPRLPRPRPRPPAFPRP | 0.144
RRIRQRPPRLPRPRPRPCREPRP | -0.0541
RRIRMRPPRLPRPRPRPTDGPRP | -0.0062
RRIRARPPRLPRPRPRPGPLPRP | 0.429
RRIRKRPPRLPRPRPRPFEQPRP | 0.0483
RRIRLRPPRLPRPRPRPAFKPRP | -0.195
RRIRQRPPRLPRPRPRPKDIPRP | 0.0266
RRIRARPPRLPRPRPRPRSDPRP | 0.257
RRIRDRPPRLPRPRPRPNDLPRP | 0.124
RRIRVRPPRLPRPRPRPFFPPRP | -0.0751
RRIRVRPPRLPRPRPRPLDGPRP | -0.267
RRIRDRPPRLPRPRPRPYVFPRP | -0.18
RRIRVRPPRLPRPRPRPSRGPRP | 0.413
RRIRIRPPRLPRPRPRPLYLPRP | -1.08
RRIRLRPPRLPRPRPRPRSTPRP | -0.00899
RRIRFRPPRLPRPRPRPWCIPRP | -0.369
RRIRYRPPRLPRPRPRPDDVPRP | 0.0235
RRIRRRPPRLPRPRPRPYDDPRP | -0.577
RRIRWRPPRLPRPRPRPVDAPRP | 0.434
RRIRHRPPRLPRPRPRPHPTPRP | -0.0838
RRIRKRPPRLPRPRPRPNQAPRP | -0.171
RRIRTRPPRLPRPRPRPNHNPRP | -0.914
RRIRLRPPRLPRPRPRPICVPRP | 0.151
RRIRNRPPRLPRPRPRPPHKPRP | -0.136

Sequence | shrunken log2 fold change
RRIRWRPPRLPRPRPRPCQLPRP | -0.0812
RRIRQRPPRLPRPRPRPPHRPRP | 0.445
RRIRWRPPRLPRPRPRPVFWPRP | 0.386
RRIRTRPPRLPRPRPRPQGKPRP | -0.108
RRIRLRPPRLPRPRPRPRWEPRP | 0.0629
RRIRHRPPRLPRPRPRPSNPPRP | -0.219
RRIRERPPRLPRPRPRPQDYPRP | -0.091
RRIRVRPPRLPRPRPRPCWWPRP | 0.297
RRIRMRPPRLPRPRPRPAPQPRP | 1.77
RRIRDRPPRLPRPRPRPLKRPRP | -0.0492
RRIRRRPPRLPRPRPRPLQLPRP | -0.101
RRIRERPPRLPRPRPRPEWEPRP | -0.0115
RRIRGRPPRLPRPRPRPIDQPRP | 0.436
RRIRDRPPRLPRPRPRPALAPRP | 1.32
RRIRKRPPRLPRPRPRPMRDPRP | 0.0228
RRIRERPPRLPRPRPRPRGFPRP | -0.0872
RRIRCRPPRLPRPRPRPRWYPRP | -0.134
RRIRCRPPRLPRPRPRPIQVPRP | -0.191
RRIRGRPPRLPRPRPRPGDCPRP | 0.824
RRIRDRPPRLPRPRPRPDAAPRP | 1.67
RRIRFRPPRLPRPRPRPLEPPRP | -0.199
RRIRARPPRLPRPRPRPKQYPRP | -0.0335
RRIRLRPPRLPRPRPRPRLRPRP | 0.285
RRIRGRPPRLPRPRPRPRHYPRP | 0.173
RRIRIRPPRLPRPRPRPYICPRP | -0.393

Sequence | shrunken log2 fold change
RRIRPRPPRLPRPRPRPRKHPRP | 0.0952
RRIRQRPPRLPRPRPRPNRTPRP | 0.0639
RRIRMRPPRLPRPRPRPMGSPRP | -0.0199
RRIRARPPRLPRPRPRPPAFPRP | 1.04
RRIRCRPPRLPRPRPRPHNGPRP | -1.03
RRIRKRPPRLPRPRPRPAPGPRP | 0.637
RRIRQRPPRLPRPRPRPKNEPRP | -0.136
RRIRCRPPRLPRPRPRPQMVPRP | 0.151
RRIRHRPPRLPRPRPRPNQPPRP | 0.00401
RRIRTRPPRLPRPRPRPKPWPRP | 0.363
RRIRARPPRLPRPRPRPIADPRP | 0.394
RRIRVRPPRLPRPRPRPVPQPRP | 0.324
RRIRKRPPRLPRPRPRPYRWPRP | -0.164
RRIRPRPPRLPRPRPRPVFRPRP | -0.332
RRIRLRPPRLPRPRPRPHENPRP | 0.0369
RRIRKRPPRLPRPRPRPNMWPRP | -0.109
RRIRCRPPRLPRPRPRPVATPRP | 0.443
RRIRKRPPRLPRPRPRPDINPRP | 0.193
RRIRLRPPRLPRPRPRPIAGPRP | -0.086
RRIRSRPPRLPRPRPRPQYRPRP | -0.234
RRIRYRPPRLPRPRPRPYANPRP | -0.474
RRIRKRPPRLPRPRPRPRELPRP | 0.753
RRIRRRPPRLPRPRPRPAYMPRP | 0.0857
RRIRERPPRLPRPRPRPNEIPRP | -0.181
RRIRRRPPRLPRPRPRPKTFPRP | -0.0358

Sequence | shrunken log2 fold change
RRIRVRPPRLPRPRPRPMLLPRP | -0.322
RRIRTRPPRLPRPRPRPPISPRP | 0.075
RRIRDRPPRLPRPRPRPMIMPRP | 0.387
RRIRDRPPRLPRPRPRPQPDPRP | 0.177
RRIRFRPPRLPRPRPRPTPSPRP | 0.636
RRIRSRPPRLPRPRPRPMCIPRP | -0.0138
RRIRDRPPRLPRPRPRPKDRPRP | 0.0874
RRIRGRPPRLPRPRPRPMIAPRP | 0.915
RRIRNRPPRLPRPRPRPRISPRP | -0.408
RRIRSRPPRLPRPRPRPLSPPRP | 0.0487
RRIRRRPPRLPRPRPRPRQGPRP | 0.298
RRIRIRPPRLPRPRPRPQWSPRP | -0.618
RRIRERPPRLPRPRPRPMTHPRP | -0.0346
RRIRVRPPRLPRPRPRPWCDPRP | -0.394
RRIRHRPPRLPRPRPRPMTYPRP | -0.19
RRIRPRPPRLPRPRPRPYEGPRP | -0.0988
RRIRNRPPRLPRPRPRPLIGPRP | -0.0791
RRIRLRPPRLPRPRPRPSQAPRP | 0.182
RRIRFRPPRLPRPRPRPFPFPRP | -0.177
RRIRWRPPRLPRPRPRPTVVPRP | 0.134
RRIRRRPPRLPRPRPRPFQAPRP | 0.376
RRIRPRPPRLPRPRPRPNVQPRP | 0.0803
RRIRWRPPRLPRPRPRPTDSPRP | -0.195
RRIRLRPPRLPRPRPRPAQGPRP | 0.376
RRIRWRPPRLPRPRPRPKQIPRP | 0.143

Sequence | shrunken log2 fold change
RRIRRRPPRLPRPRPRPPCAPRP | 0.667
RRIRHRPPRLPRPRPRPLQAPRP | -0.279
RRIRERPPRLPRPRPRPLQFPRP | -0.468
RRIRHRPPRLPRPRPRPMMVPRP | -0.0274
RRIRDRPPRLPRPRPRPSRMPRP | -0.0207
RRIRKRPPRLPRPRPRPFKYPRP | -0.517
RRIRMRPPRLPRPRPRPSNVPRP | -0.259
RRIRKRPPRLPRPRPRPRWLPRP | 0.796
RRIRIRPPRLPRPRPRPDPIPRP | -0.0427
RRIRVRPPRLPRPRPRPMNSPRP | -0.675
RRIRIRPPRLPRPRPRPRNAPRP | 0.0687
RRIRNRPPRLPRPRPRPETMPRP | -0.0713
RRIRFRPPRLPRPRPRPQQIPRP | -0.54
RRIRERPPRLPRPRPRPGNAPRP | -0.0685
RRIRVRPPRLPRPRPRPAFGPRP | 0.18
RRIRRRPPRLPRPRPRPLHTPRP | 0.321
RRIRGRPPRLPRPRPRPRTGPRP | 0.617
RRIRKRPPRLPRPRPRPVNRPRP | 0.0352
RRIRGRPPRLPRPRPRPTEDPRP | 1.2
RRIRPRPPRLPRPRPRPWNVPRP | -0.052
RRIRLRPPRLPRPRPRPVSYPRP | -0.0976
RRIRERPPRLPRPRPRPGVAPRP | 0.146
RRIRGRPPRLPRPRPRPTTKPRP | 1
RRIRCRPPRLPRPRPRPHKHPRP | -0.58
RRIRVRPPRLPRPRPRPLTKPRP | 0.044
